Data taken from EP4554620A1 (dated 2025).

Key:
[1] = target: T1, Human TIGIT residues 23-128 LEU65A mutant (human, UniProt Q495A1 23-128); test: SPR, TIGIT alanine mutants
T1 construct: not shown: C-terminal HIS tag
T1 chain: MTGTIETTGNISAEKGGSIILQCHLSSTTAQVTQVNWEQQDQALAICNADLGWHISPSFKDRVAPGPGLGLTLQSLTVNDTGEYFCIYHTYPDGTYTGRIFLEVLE

[2] = target: T2, Human TIGIT residues 23-128 ILE68A mutant (human, UniProt Q495A1 23-128); test: SPR, TIGIT alanine mutants
T2 construct: not shown: C-terminal HIS tag
T2 chain: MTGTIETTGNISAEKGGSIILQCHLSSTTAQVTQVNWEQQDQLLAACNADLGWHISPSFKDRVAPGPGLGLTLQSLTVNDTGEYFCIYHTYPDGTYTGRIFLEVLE

B1: Tiragolumab (antibody, V domains shown)
VH: EVQLQQSGPGLVKPSQTLSLTCAISGDSVSSNSAAWNWIRQSPSRGLEWLGKTYYRFKWYSDYAVSVKGRITINPDTSKNQFSLQLNSVTPEDTAVFYCTRESTTYDLLAGPFDYWGQGTLVTVSS
VL: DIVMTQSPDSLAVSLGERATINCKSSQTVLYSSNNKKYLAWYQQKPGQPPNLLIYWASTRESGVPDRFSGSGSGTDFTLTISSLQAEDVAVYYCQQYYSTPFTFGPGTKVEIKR
- fold lower binding affinity against WT TIGIT [1]: ~25 fold
- fold lower binding affinity against WT TIGIT [2]: ~40 fold
